Source: patent US20250154277A1 (CONCEPT TO MEDICINE BIOTECH, published 2025)
Where a chain is given by its changes, count along the chain named.

B1: Hu14G12-33 (antibody, V domains shown)
VH: QVQLVQSGAEVKKPGASVKVSCKASGYAFSSSWMNWVRQAPGQGLEWMGRIYREDGHTNYNGKFKGRVTMTADKSTTTAYMELSSLRSEDTAVYYCANGGAMDYWGQGTLVTVSS
VL: DIQMTQSPSSLSASVGDRVTITCRASQDISNYLNWYQQKPGKAPKLLIYYTSRLHSGVPSRFSGSGSGTDYTFTISSLQPEDIATYFCQQDNTLPWTFGGGTKVEIK
notes: humanized
B2: Hu14G12-22 (antibody, V domains shown)
VH: B1 VH with A16S, Y27G, A28T, R38K, M48I, V68A, M70I, T77S, Y95F, L110T
VL: B1 VL with A43V, F73L, I83V, V104L
notes: humanized
B3: Hu14G12-17 (antibody, V domains shown)
VH: QVQLVQSGAEVKKPGSSVKVSCKASGGTFSSSWMNWVKQAPGQGLEWIGRIYREDGHTNYNGKFKGKATLTADKSTSTAYMELSSLRSEDTAVYFCANGGAMDYWGQGTTVTVSS
VL: B1 VL with A43V, Y71F, F73L, I83V, F87Y, V104L
notes: humanized
B4: Hu14G12-35 (antibody, V domains shown)
VH: B1 VH
VL: EIVMTQSPATLSLSPGERATLSCRASQDISNYLNWYQQKPGQAPRLLIYYTSRLHSGIPARFSGSGSGTDYTLTISSLEPEDIAVYFCQQDNTLPWTFGGGTKVEIK
notes: humanized
B5: Hu14G12-20 (antibody, V domains shown)
VH: B3 VH with K67R
VL: B1 VL with A43V, F73L, I83V, V104L
notes: humanized
B6: Hu14G12-36 (antibody, V domains shown)
VH: B1 VH
VL: DIVMTQSPDSLAVSLGERATINCRASQDISNYLNWYQQKPGQPPKLLIYYTSRLHSGVPDRFSGSGSGTDYTLTISSLQAEDIAVYFCQQDNTLPWTFGGGTKVEIK
notes: humanized
B7: Hu14G12-21 (antibody, V domains shown)
VH: B3 VH with K67R, L70I
VL: B1 VL with A43V, Y71F, F73L, I83V, F87Y, V104L
notes: humanized
B8: Hu14G12-19 (antibody, V domains shown)
VH: B3 VH with K67R
VL: B1 VL with A43V, Y71F, F73L, I83V, F87Y, V104L
notes: humanized
B9: Hu14G12-41 (antibody, V domains shown)
VH: B1 VH with G44R, M70I, T76A
VL: B6 VL
notes: humanized
B10: Hu14G12-10 (antibody, V domains shown)
VH: EVQLVQSGAEVKKPGATVKISCKVSGYAFSSSWMNWVKQAPGKGLEWIGRIYREDGHTNYNGKFKGRATITADTSTTTAYMELSSLRSEDTAVYFCANGGAMDYWGQGTLVTVSS
VL: B1 VL with V104L
notes: humanized
B11: Hu14G12-30 (antibody, V domains shown)
VH: B1 VH with T76I, S85R, E89D
VL: B4 VL
notes: humanized
B12: Hu14G12-25 (antibody, V domains shown)
VH: B1 VH with A16S, M70I
VL: B4 VL
notes: humanized
B13: Hu14G12-42 (antibody, V domains shown)
VH: B1 VH with G44R, M70I, T76A
VL: B1 VL with S10T, D70E, F73L, E81D
notes: humanized
B14: Hu14G12-46 (antibody, V domains shown)
VH: B1 VH with S84R, E89D
VL: B6 VL
notes: humanized
B15: Hu14G12-44 (antibody, V domains shown)
VH: B1 VH with S84R, E89D
VL: B1 VL with F73L
notes: humanized
B16: Hu14G12-24 (antibody, V domains shown)
VH: B1 VH with A16S, M70I
VL: B1 VL with F73L
notes: humanized
B17: Hu14G12-32 (antibody, V domains shown)
VH: B1 VH with T76I, S85R, E89D
VL: B1 VL with S10T, D70E, F73L, E81D
notes: humanized
B18: Hu14G12-47 (antibody, V domains shown)
VH: B1 VH with S84R, E89D
VL: B1 VL with S10T, D70E, F73L, E81D
notes: humanized
B19: Hu14G12-39 (antibody, V domains shown)
VH: B1 VH with G44R, M70I, T76A
VL: B1 VL with F73L
notes: humanized
B20: Hu14G12-2 (antibody, V domains shown)
VH: B10 VH with K38Q, I48M, A68V, T77D, F95Y, N98T
VL: B1 VL with V104L
notes: humanized
B21: Hu14G12-6 (antibody, V domains shown)
VH: B10 VH with K38Q, A68V, T77D
VL: B1 VL with V104L
notes: humanized
B22: Hu14G12-26 (antibody, V domains shown)
VH: B1 VH with A16S, M70I
VL: B6 VL
notes: humanized
B23: Hu14G12-14 (antibody, V domains shown)
VH: B10 VH with V24A, T91S
VL: B1 VL with V104L
notes: humanized
B24: Hu14G12-23 (antibody, V domains shown)
VH: B1 VH with A16S, M70I
VL: B1 VL
notes: humanized
B25: Hu14G12-37 (antibody, V domains shown)
VH: B1 VH
VL: B1 VL with S10T, D70E, F73L, E81D
notes: humanized
B26: Hu14G12-27 (antibody, V domains shown)
VH: B1 VH with A16S, M70I
VL: B1 VL with S10T, D70E, F73L, E81D
notes: humanized
B27: Hu14G12-38 (antibody, V domains shown)
VH: B1 VH with G44R, M70I, T76A
VL: B1 VL
notes: humanized
B28: Hu14G12-45 (antibody, V domains shown)
VH: B1 VH with S84R, E89D
VL: B4 VL
notes: humanized
B29: Hu14G12-31 (antibody, V domains shown)
VH: B1 VH with T76I, S85R, E89D
VL: B6 VL
notes: humanized
B30: Hu14G12-29 (antibody, V domains shown)
VH: B1 VH with T76I, S85R, E89D
VL: B1 VL with F73L
notes: humanized
B31: Hu14G12-40 (antibody, V domains shown)
VH: B1 VH with G44R, M70I, T76A
VL: B4 VL
notes: humanized
B32: Hu14G12-34 (antibody, V domains shown)
VH: B1 VH
VL: B1 VL with F73L
notes: humanized
B33: Hu14G12-43 (antibody, V domains shown)
VH: B1 VH with S84R, E89D
VL: B1 VL
notes: humanized

biological target: T1, human 5T4-His protein (human, UniProt Q13641 32-355); test: ELISA, coated 5T4-His
T1 construct: also called recombinant 5T4 protein (human 5T4-his tag); human 5T4 protein; not shown: His tag
T1 sequence (looked up): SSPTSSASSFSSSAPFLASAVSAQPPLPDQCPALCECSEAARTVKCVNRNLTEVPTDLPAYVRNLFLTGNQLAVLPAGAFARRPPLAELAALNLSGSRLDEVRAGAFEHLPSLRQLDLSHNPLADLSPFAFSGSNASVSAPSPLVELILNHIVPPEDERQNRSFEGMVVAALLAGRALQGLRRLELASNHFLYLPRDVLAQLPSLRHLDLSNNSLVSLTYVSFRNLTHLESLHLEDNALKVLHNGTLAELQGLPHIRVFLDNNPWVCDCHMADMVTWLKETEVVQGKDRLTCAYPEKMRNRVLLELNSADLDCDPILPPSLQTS
Description: To evaluate the binding activity of 14G12 humanized antibodies to human 5T4, the 14G12 chimeric antibody along with 14G12 humanized mAbs were subjected to ELISA test.
Briefly, microtiter plates were coated with human 5T4-His protein at 1 μg/ml in PBS, 100 μl/well at 4° C. overnight, then blocked with […]. Serial dilutions of antibodies were added to each well and incubated for 1 hour at 37° C. The plates were washed with PBS/Tween and then incubated with Goat Anti-Human IgG-HRP for 30 mins at 37° C. After washing, the plates were developed with TMB substrate and analyzed by spectrophotometer at OD 450 nm. As shown in FIG. 10 and Table 6, most of the humanized antibodies bound to human 5T4 at high activity.

| EC50 [ng/mL] | Binder |
| --- | --- |
| 11 | B1 |
| 450 | B2 |
| 520 | B3 |
| 13 | B4 |
| 320 | B5 |
| 6.8 | B6 |
| 400 | B7 |
| 400 | B8 |
| 4.7 | B9 |
| 15 | B10 |
| 10 | B11 |
| 6 | B12 |
| 7.8 | B13 |
| 23 | B14 |
| 7.5 | B15 |
| 4.9 | B16 |
| 9.3 | B17 |

| EC50 [ng/mL] | Binder |
| --- | --- |
| 14 | B18 |
| 6.9 | B19 |
| 21 | B20 |
| 10 | B21 |
| 6.9 | B22 |
| 14 | B23 |
| 7.1 | B24 |
| 11 | B25 |
| 7.8 | B26 |
| 6.4 | B27 |
| 8.2 | B28 |
| 8.4 | B29 |
| 6.7 | B30 |
| 28 | B31 |
| 8.7 | B32 |
| 6.4 | B33 |

biological target: T1, human 5T4-His protein; test: SPR Biacore, Protein A capture
Description: The binding of the 14G12 humanized antibodies to recombinant 5T4 protein (human 5T4-his tag) was tested with Biacore using a capture method. The mAbs were captured using Protein A chip. Serial dilution of human 5T4-his tag protein was injected over captured antibody for 120 s-180 s at a flow rate of 30 μl/min. The antigen was allowed to dissociate for 360 s-1000 s. All the experiments were carried out on a Biacore T200. Data analysis was carried out using the Biacore T200 evaluation software.

| Kd [nM] | koff [s⁻¹] | kon [M⁻¹ s⁻¹] | Binder |
| --- | --- | --- | --- |
| 2.42 | 0.000512 | 212000 | B10 |
| 1.41 | 0.00197 | 1.4e+06 | B15 |
| 2.76 | 0.000979 | 355000 | B17 |
| 2.1 | 0.000921 | 438000 | B18 |
| 21.5 | 0.00436 | 203000 | B20 |
| 2.68 | 0.00077 | 288000 | B21 |
| 3.39 | 0.000701 | 207000 | B23 |
| 2.58 | 0.000908 | 352000 | B24 |
| 1.05 | 0.00142 | 1.34e+06 | B25 |
| 2.14 | 0.0011 | 514000 | B30 |
| 0.844 | 0.0016 | 1.89e+06 | B33 |
